Patent US20250388704A1 (Xencor, published 2025)
One block for each binder: values may come before it.

Experiments:
[1] = target: T1, human CD28 on the surface of human PBMCs / T cells (human, UniProt P10747 19-220); assay: flow cytometry on human PBMCs, 1 h at 4 C, detected with Alexa Fluor 647 anti-human IgG Fc secondary
T1 construct: whole, on cells; Endogenous CD28 on human PBMCs (flow cytometry) and on T cells (functional assays); also called cell-surface CD28
Source text: Binding of the phage-derived bivalent mAbs to cell-surface CD28 was investigated.

[2] = target: T2, human PSMA on the surface of prostate cancer cell lines (C42B / C42B-NLR, 22Rv1 / 22Rv1-NLR, PSMA-transfected … (human, UniProt Q04609 1-750)); assay: flow cytometry on 22Rv1-NLR (PSMA med) cells, 30 min at 37 degrees, detection with anti-human-Ig-FITC
T2 construct: whole, on cells; also called Prostate Specific Membrane Antigen

[3] = target: T3, CD28 antigen used for the affinity determinations (human, UniProt P10747 19-152, limits assumed); assay: CD28 binding affinity of the scFv arm, told in a figure legend; method not stated
T3 construct: Octet/BLI is described only for the bivalent mAbs

[4] = target: T2, human PSMA on the surface of prostate …; assay: binding to C4-2B (C42B, PSMA^hi) cells, MFI against concentration, least squares fit
[5] = target: T3, CD28 antigen used for the affinity …; assay: CD28 binding affinity of the scFv arm; method not stated
[6] = target: T3, CD28 antigen used for the affinity …; assay: CD28 binding affinity of the scFv arm; method not stated; assigned to XENP40470 by elimination

B2: PSMA x CD28 bsAb with A10 PSMA binding domain and 1A7_H1_L1.71 CD28 binding domain (Platform X) (bispecific antibody)
heavy: not shown
scFv-Fc: not shown
light: SYELMQPPSVSVSPGQTARITCSGDALPKQYAYWYQQKPGQAPVLVIYKDSERPSGIPVRFSGSSSGTTVTLTITGVQAEDEADYYCQSADSSGTYVFGTGTKVTVLGQPKAAPSVTLFPPSSEELQANKATLVCLISDFYPGAVTVAWKADSSPVKAGVETTTPSKQSNNKYAASSYLSLTPEQWKSHRSYSCQVTHEGSTVEKTVAPTECS
EC50 (read off the curve) [2]: ~0.06 µg/mL

B3: XENP38936 (bispecific antibody)
heavy: not shown
scFv-Fc: not shown
light: B2 light
notes: also called PSMA x CD28 180 nM
Kd [3]: 180 nM
EC50 (read off the curve) [4]: ~2 nM

B4: XENP39231 (bispecific antibody)
heavy: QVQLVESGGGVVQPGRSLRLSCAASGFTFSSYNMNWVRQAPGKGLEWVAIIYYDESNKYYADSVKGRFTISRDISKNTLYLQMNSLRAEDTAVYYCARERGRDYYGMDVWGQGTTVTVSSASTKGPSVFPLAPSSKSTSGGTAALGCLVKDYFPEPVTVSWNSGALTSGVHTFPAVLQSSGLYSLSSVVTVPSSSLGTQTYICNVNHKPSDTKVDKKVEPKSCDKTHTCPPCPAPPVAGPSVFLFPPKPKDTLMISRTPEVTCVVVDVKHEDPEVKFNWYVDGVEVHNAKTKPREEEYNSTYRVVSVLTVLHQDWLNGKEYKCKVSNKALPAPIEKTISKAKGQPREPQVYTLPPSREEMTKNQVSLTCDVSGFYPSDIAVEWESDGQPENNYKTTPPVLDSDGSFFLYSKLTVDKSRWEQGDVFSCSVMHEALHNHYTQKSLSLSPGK
scFv-Fc: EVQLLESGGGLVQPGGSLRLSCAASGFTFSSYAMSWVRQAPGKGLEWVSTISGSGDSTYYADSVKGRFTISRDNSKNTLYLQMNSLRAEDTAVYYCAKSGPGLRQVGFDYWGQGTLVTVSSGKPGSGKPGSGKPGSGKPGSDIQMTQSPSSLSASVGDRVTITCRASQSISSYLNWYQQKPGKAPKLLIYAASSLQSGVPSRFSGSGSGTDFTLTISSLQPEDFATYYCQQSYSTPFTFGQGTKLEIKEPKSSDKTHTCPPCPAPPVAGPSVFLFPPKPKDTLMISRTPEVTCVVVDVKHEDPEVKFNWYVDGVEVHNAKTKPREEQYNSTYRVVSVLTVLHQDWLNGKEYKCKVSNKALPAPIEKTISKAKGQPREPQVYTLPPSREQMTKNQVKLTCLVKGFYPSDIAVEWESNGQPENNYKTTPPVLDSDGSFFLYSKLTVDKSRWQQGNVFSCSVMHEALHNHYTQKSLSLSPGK
light: B2 light
notes: also called PSMA x CD28 1 uM
Kd [5]: 1000 nM

The remaining lines, values ahead:

binding result [1]: binds
B1: XENP27181 (antibody, V domains shown)
VH: QVQLQESGPGLVKPSETLSLTCAVSGFSLTSYGVHWIRQPPGKGLEWLGVIWPGGGTNFNSALMSRLTISEDTSKNQVSLKLSSVTAADTAVYYCARDRAYGNYLYAMDYWGQGTLVTVSS
VL: DIQMTQSPSSLSASVGDRVTITCRASESVEYYVTSLMQWYQQKPGKAPKLLIYAASNVDSGVPSRFSGSGSGTDFTLTISSLQPEDIATYYCQQSRKVPFTFGGGTKVEIKR
notes: Bivalent anti-CD28 mAb; also called HuTN228; prior art anti-CD28 mAb HuTN228; copies: 2 + 2

Kd [6]: 600 nM
B5: XENP40470 (bispecific antibody)
heavy: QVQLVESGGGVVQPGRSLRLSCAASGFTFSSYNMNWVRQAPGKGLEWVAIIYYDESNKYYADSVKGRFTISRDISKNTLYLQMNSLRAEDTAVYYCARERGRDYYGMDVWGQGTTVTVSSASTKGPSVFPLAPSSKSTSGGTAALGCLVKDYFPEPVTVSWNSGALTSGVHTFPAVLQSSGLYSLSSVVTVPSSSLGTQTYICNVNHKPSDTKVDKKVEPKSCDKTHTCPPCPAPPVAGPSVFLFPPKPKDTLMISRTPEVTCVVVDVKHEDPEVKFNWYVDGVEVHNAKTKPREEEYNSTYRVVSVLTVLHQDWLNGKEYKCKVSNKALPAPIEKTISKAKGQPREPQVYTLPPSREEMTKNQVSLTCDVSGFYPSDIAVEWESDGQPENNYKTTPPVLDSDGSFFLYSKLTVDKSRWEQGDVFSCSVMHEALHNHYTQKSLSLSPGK
scFv-Fc: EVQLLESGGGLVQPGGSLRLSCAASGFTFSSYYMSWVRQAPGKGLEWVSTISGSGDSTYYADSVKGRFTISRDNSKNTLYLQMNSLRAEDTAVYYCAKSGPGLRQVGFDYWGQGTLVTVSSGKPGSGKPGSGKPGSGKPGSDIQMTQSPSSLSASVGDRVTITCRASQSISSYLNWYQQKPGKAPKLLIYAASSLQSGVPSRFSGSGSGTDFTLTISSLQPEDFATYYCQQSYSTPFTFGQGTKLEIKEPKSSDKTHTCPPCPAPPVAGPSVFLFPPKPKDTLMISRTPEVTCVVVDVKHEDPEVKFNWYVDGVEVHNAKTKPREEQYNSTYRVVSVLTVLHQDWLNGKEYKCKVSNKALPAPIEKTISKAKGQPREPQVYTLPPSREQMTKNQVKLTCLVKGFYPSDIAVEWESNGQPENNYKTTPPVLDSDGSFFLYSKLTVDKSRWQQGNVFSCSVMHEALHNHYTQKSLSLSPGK
light: B2 light
notes: Assigned to the 600 nM domain by elimination, because XENP39231 is told to be 1000 nM
